Assay results taken from PMC10698194.

Molecular target: mouse KOR-EGFP (mouse) (UniProt P33534)
Sequence (P33534 whole entry): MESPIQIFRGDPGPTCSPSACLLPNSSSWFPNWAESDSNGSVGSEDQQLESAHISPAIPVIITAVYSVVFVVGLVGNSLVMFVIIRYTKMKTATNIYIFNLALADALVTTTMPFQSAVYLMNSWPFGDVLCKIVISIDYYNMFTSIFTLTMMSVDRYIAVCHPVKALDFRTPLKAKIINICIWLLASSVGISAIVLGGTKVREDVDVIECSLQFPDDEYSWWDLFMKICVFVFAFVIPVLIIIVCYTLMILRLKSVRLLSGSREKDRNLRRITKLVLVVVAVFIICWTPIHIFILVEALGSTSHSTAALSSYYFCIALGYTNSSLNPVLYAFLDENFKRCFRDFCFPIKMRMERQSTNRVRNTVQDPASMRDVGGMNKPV

dynorphin (dyn) A_(1-13) (peptide)
β-arrestin-2 recruitment (BRET), EC50: 31 nM
